Test results reported in US20230137139A1, “BIOSYNTHESIS OF CANNABINOIDS AND C[…]” (priority 2020, published 2023).

B1: t861563 (protein)
chain: MARVPALFLGLSSVCLLVFFCSLINPTTPLHQHGKQTSIAGRDCLVSALGGNTGLVAFQDQLLYQTTAVHEYNLNIPVTPAAITYPETSEQIAAVVKCASEYDYKVQARSGGHSFGNYGLGGADGAVVVDMKHFTQFSMDEQTYEAVIGPGTTLGDVDTELYNNGKRAMAHGICPTISTGGHFTMGGLGPTARQWGLALDHVEEVEVVLANSSIVRASNTQNQEVFFAVKGAAASFGIVTEFKVRTQPAPGLAVQYSYTFNLGSSAEKAQFVKDWQSFISAKNLTRQFYTNMVIFDGNIILEGLFFGSKEQYEALGLEDRFVPKNPGNILVLTDWLGMVGHALEDTILRLVGNTPTWFYAKSLGFTPDTLIPSSGIDEFFDYIENNKAGTLTWFVTLSLEGGAINDVPKDATAYGHRDVLFWVQIFMASPTGPVSSTTYDFADGLYNVLTKAVPESEGHAYLGCPDPKMADAQQKYWRQNLPRLEELKATLDPKDTFHNPQGILPA
B2: t861562 (protein)
chain: MGNTTSIAAGRDCLISAVGGNAAHVAFQDQLLYQATAVEPYNLNIPITPAAITYPQSADEIAAVVKCASEYGYKVQARSGGHSFGNYGLGGEDGAIVVEMKHFSQFSMDESTYIATIGPGITLGDLDTELYNVGHRAMAHGICPTIRTGGHLTVGGLGPTARQWGLALDHVEEVEVVLANSSIVRASDTQNQDIFFAIKGAAASFGIVTEFKVRTEQAPGLAVQYSYTFNLGTPAEKAKLVKDWQAFIAQENLSWKFYSNMVVFDGQIILEGLYFGSKEEYDALGLEQRFPPSEAGNVLVLTDWLGMVGHELEDTILRLVGNTPTWFYAKSLGFTPRALIPDSAIDDLFNYIHENNPGTLAWFVTLSLEGGAINTVPEHATAYGHRDVLFWVQIFVINPLGPVSQTTYGFADGMYDVLAQAVPESAGHAYLGCPDPRMPNAQQAYWRSNLPRLEELKGDLDPKGIFHNPQGVMVVS
B3: t861583 (protein)
chain: MGNTTSIAGRDCLISALGGNSALAVFPNELLWTADVHEYNLNLPVTPAAITYPETAAQIAGVVKCASDYDYKVQARSGGHSFGNYGLGGADGAVVVDMKHFTQFSMDDETYEAVIGPGTTLNDVDIELYNNGKRAMAHGVCPTIKTGGHFTIGGLGPTARQWGLALDHVEEVEVVLANSSIVRASNTQNQDVFFAVKGAAANFGIVTEFKVRTEPAPGLAVQYSYTFNLGSTAEKAQFVKDWQSFISAKNLTRQFYNNMVIFDGDIILEGLFFGSKEQYDALGLEDHFAPKNPGNILVLTDWLGMVGHALEDTILKLVGNTPTWFYAKSLGFRQDTLIPSAGIDEFFEYIANHTAGTPAWFVTLSLEGGAINDVAEDATAYAHRDVLFWVQLFMVNPLGPISDTTYEFTDGLYDVLARAVPESVGHAYLGCPDPRMEDAQQKYWRTNLPRLQELKEELDPKNTFHHPQGVMPA
B4: t861568 (protein)
chain: MGNSASVAGRACFVAAVGHDPNLVTFRGDLLYEFRIQPSYNLAIPVHPTVVTYPKTTAQVAEIVSCAAAQNYKMQAYSGGHSYGNYGLGGEDGHVVVDLKNFQDFTMDPDTHVATIGAGTSLGDLQDRLWHAGGRAMAHGSCPQVGVGGHFTIGGLGMMSRQWGMSLDHVVEAQVVLANSSVVTASDTQNQDIFWAIKGAAASFGIVTKFKVRTHGVPKAAIQYQYTFSQGDVLDKVKLFMAWQNIVAKPNLTRNFSTELTIFQDGIMIMGSFFGTRDEFHKFELENDLPLQGLGNVAYITNWLSLVAHTAEDYLLRLTGNVLTSFYAKSLSFTADELFNEQGLVTLFTYLDAAPKGTPTWWVIFDLEGGATNDVPVNATSYAHRDAIMWMQSYAVAGFEPPGFIIKRFLNRLHGVVIGNRAPGAVRSYPGYVDPYLRNAQETYWGPNLARLQDIKTAVDPDDVFHNPQSVKVNSLSPPDPGSHDV
B5: t861588 (protein)
chain: MGNTTSIAAGRDCLLSAVGGNHAHVAFQDQLLYQVTAVEPYNLNIPVTPAAVTYPQSADEIAAVVKCASEYGYKVQARSGGHSFGNYGLGGEDGAIVVEMKHFNQFSMDESTYTATIGPGITLGDLDTALYNAGHRAMAHGICPTIRTGGHLTMGGLGPTARQWGLALDHVEEVEVVLANSSIVRASNTQNQDILFAIKGAAASFGIVTEFKVRTEAAPGVAVQYSFTFNLGTPAEKAKLVKDWQAFIAQEDLTWKFYSNMNIFDGQIILEGIYFGSKEEYDALGLEKRFPSSEAGTVLVLTDWLGMVGHGLEDVILRLVGNTPTWFYAKSLGFTPRALIPDSAIDEFLNYIHENTPGTVSWFVTLSLEGGAINKVPGDATAYGHRDVLFWVQIFMINPLGPVSQTTYGFADGLYDVLAKAVPNSAGHAYLGCPDPRMPNAQQAYWRSNLPRLEELKGELDPKDIFHNPQGVMVVS
modifications: N- and C-terminal signal peptides
B6: t861586 (protein)
chain: MAPSISFSLLQISLLAYSGLVSGDFSLRQCLESAVSRVAFEGDPFYQLLSVRPYNLDISIVPAAVAFPADTNEVAAVVRCAAQNGYQVQAKSGGHSYANHGLGGTNGAVVVNLENLQHFSMNTTTWEATIGAGTLLGDVTKRLSDAGGRAMAHGTCPQVGSGGHFTIGGLGPSSRQFGAALDHIIEAEVVLANSSIIRASETENPDVFFAVRGAASGFGIVTEFKVRTEPEPGQAVRYSYSFSFSDTATRADLFKKWQAYVTQPDLPRELASTLTILEHGMFITGTFFGSKEEYNALKIETEFPGFAKGGTLVLDDWLGLVSNWAEDLLLSEEEIEQMFEYIDNVDKGTLLWFAIFDLQGGAVGDVPVDATAYAHRDTLIWLQSYAINLFGRISETTVEFLERLNELTLTSTAKTVPYAAYPGYVDPRLTDAQAAYWGSNLARLNRIKAEIDPNNVFHNPQSVRPASG
B7: t861567 (protein)
chain: MDSNTWEATFGSGFLLGELDKHLHANGNRAMAHGTCPGVGMGGHATIGGIGPSSRLWGTTLDHVLQVEVVTADGKIQRASKTQNPDLFWALQGAGASFGIITEFVVRTEPEPGSVVEYTYSVSLGKQSDMAPLYKQWQALVGDPSLDRRFTSLFIAEPLGVLITGTFYGTMYEWHASGIPDKLPRGPISVTVMDSLGSLAHIAEKTGLYLTNVPTSFASRSLALRQQDLLSEQSIDDLFEYMGSANADTPLWFVIFDNEGGAIADVPDNSTAYPHRDKVIVYQSYSVGLLGVTDKMIKFLDGVQDIVQRGAPNAHTTYAGYINPQLDRKAAQQFYWGDKLPRLQQIKKQYDPNNVFCNPQSIYPAEDMSDG
B8: t861551 (protein)
chain: MGNTTSIAGRDCLISALGGNSALAVFPNQLLWTADVHEYNLNLPVTPAAITYPETAEQIAGIVKCASDYDYKVQARSGGHSFGNYGLGGTDGAVVVDMKHFNQFSMDDQTYEAVIGPGTTLNDVDIELYNNGKRAMAHGVCPTIKTGGHFTIGGLGPTARQWGLALDHVEEVEVVLANSSIVRASNTQNQDVFFAVKGAAADFGIVTEFKVRTEPAPGLAVQYSYTFNLGSTAEKAQFVKDWQSFISAKNLTRQFYNNMVIFDGDIILEGLFFGSKEQYDALGLEDHFAPKNPGNILVLTDWLGMVGHALEDTILKLVGNTPTWFYAKSLGFRQDTLIPSAGIDQFFEYIANHTAGTPAWFVTLSLEGGAINDVAEDATAYAHRDVLFWVQLFMVNPLGPISETTYEFTDGLYDVLARAVPESVGHAYLGCPDPRMENAPQKYWRTNLPRLQELKEELDPKNTFHHPQGVIPA
B9: t861592 (protein)
chain: MGNTTSIAGRDCLISALGGNSALAAFPNQLLWTADVHEYNLNLPVTPAAITYPETAEQIAGIVKCASDYDYKVQARSGGHSFGNYGLGGTDGAVVVDMKHFNQFSMDDQTYEAVIGPGTTLNDVDIELYNNGKRAMAHGVCPTIKTGGHFTIGGLGPTARQWGLALDHVEEVEVVLANSSIVRASNTQNQDVLFAVKGAAADFGIVTEFKVRTEPAPGLAVQYSYTFNLGSTAEKAQFVKDWQSFISAKNLTRQFYNNMVIFDGDIILEGLFFGSKEQYDALGLEDHFAPKNPGNILVLTDWLGMVGHALEDTILKLVGNTPTWFYAKSLGFRQDTLIPSAGIDEFFEYIDNHTAGTPAWFVTLSLEGGAINDVAEDATAYAHRDVLFWVQLFMVNPLGPISETTYEFTDGLYDVLARAVPESVGHAYLGCPDPRMENAPQKYWRTNLPRLQELKEELDPKNTFHHPQGVIPA
B10: t861577 (protein)
chain: MGNTTSIAGRDCLISALGGNSALAAFPNQLLWTADVHEYNLNLPVTPAAITYPETAEQIAGIVKCASDYDYKVQARSGGHSFGNYGLGGTDGAVVVDMKHFNQFSMDDQTYEAVIGPGTTLNDVDIELYNNGKRAMAHGVCPTIKTGGHFTIGGLGPTARQWGLALDHVEEVEVVLANSSIVRASNTQNQDVLFAVKGAAADFGIVTEFKVRTEPAPGLAVQYSYTFNLGSTAEKAQFVKDWQSFISAKNLTRQFYNNMVIFDGDIILEGLFFGSKEQYDALGLEDHFAPKNPGNILVLTDWLGMVGHALEDTILKLVGNTPTWFYAKSLGFRQDTLIPSAGIDEFFEYIDNHTAGTPAWFVTLSLEGGAINDVAEDATAYAHRDVLFWVQLFMVNPLGPISETTYEFTDGLYDVLARAVPESVGHAYLGCPDPRMENAPQKYWRTNLPRLQELKEELDPKNTFHHPQGVIPA

Tested on: CBCA production
Assay: In vivo TS activity assay, Example 4 CBCAS enzymes with and without signal peptides, no pH adjustment
Format: cell-based
Settings: strains with (Y) or without (N) N-terminal and C-terminal signal peptides; no pH adjustment at Day 4; S. cerevisiae
Procedure: An assay to detect TS activity was conducted as follows: each thawed glycerol stock of candidate CBCAS transformants was stamped into a well of YEP+4% dextrose media. Samples were incubated at 30° C. in a shaking incubator for 2 days. A portion of each of the resulting cultures was stamped into a well of YEP+4% galactose+1 mM olivetolic acid (FIG. 1 Structure 6a). Samples were incubated at 20° C. and shaken in a shaking incubator for 4 days. Every 24 hours during those 4 days, 2% galactose and 1 mM olivetolic acid were spiked into the cultures. Sodium citrate buffer adjusted to pH 5.5 was added to each well at a final concentration of 100 mM. Samples were incubated at 20° C. and shaken in a shaking incubator for 2 days. A portion of each of the resulting production cultures was stamped into a well of phosphate buffered saline (PBS). Optical measurements were taken on a plate reader, with absorbance measured at 600 nm and fluorescence at 528 nm with 485 nm excitation. Samples were incubated at 30° C. in a shaking incubator for 2 days. 100% methanol was stamped into the production cultures in half-height deepwell plates. Plates were heat sealed and frozen. Samples were then thawed for 30 min and spun down at 4° C. A portion of the supernatant was stamped into half-area 96 well plates. CBCA, THCA, and CBDA production in the samples was quantified via liquid chromatography-mass spectrometry (LC-MS).
A library of 20 CBCAS enzymes selected from Example 1 and 3 was synthesized, including versions of the CBCAS enzymes with and without the N-terminal MFalpha2 signal peptide (SEQ ID NO: 16) and C-terminal HDEL signal peptide (SEQ ID NO: 17). Each candidate enzyme expression construct was transformed into an S. cerevisiae CEN.PK strain that also expressed a prenyltransferase enzyme capable of catalyzing reaction R^4 in FIG. 2. Strain t861555 expressing the A. niger CBCAS identified in Example 1, carrying both the Mfalpha2 and HDEL signal peptides was included in the library screen as a positive control for enzyme activity. Strain t861565 expressed the same A. niger CBCAS without the Mfalpha2 and HDEL signal peptides.
The strains were screened using the assay described in Example 1 with the following exception: at Day 4 samples were not subjected to a pH adjustment and a further 2 days of incubation at 20° C.

Row | Molecule | Average CBCA [µg/L]
1 | B1 | 4821.60
2 | B2 | 55737.91
3 | B3 | 59260.52
4 | B4 | 0.00
5 | B5 | 42686.95
6 | B6 | 0.00
7 | B7 | 0.00
8 | B8 | 17501.94
9 | B9 | 74584.36
10 | B10 | 36869.19
